The results in this text go back to article PMC12691643.

Holding throughout (test): affinity purification with mass spectrometry; HA-tagged TgWIP variants pulled down by the HA tag from lysates of DC2.4 cells infected 4 h at MOI 7; host partners by mass spectrometry; values are negative fold changes in peptide counts of the mutant immunoprecipitations relative to TgWIP^WT
The target in test [1] is TgWIP^(PRR3 mut), HA-tagged (Toxoplasma gondii).
For test [2], the target named is TgWIP^Y150A/Y199A, HA-tagged (Toxoplasma gondii).
The target in test [3] is TgWIP^(PRR2 mut), HA-tagged (Toxoplasma gondii).
The target in test [4] is TgWIP^(WIRS mut), HA-tagged (Toxoplasma gondii).

Take “Pstpip1, endogenous in murine DC2.4 cells (from UniProt P97814 1-415) (natural protein)”: the negative fold change in peptide counts relative to TgWIP^WT in test [1] worked out at 5 fold; in test [2] it was 1 fold; in test [3], 8 fold; in test [4], 1 fold.

As to “Lrrk1, endogenous in murine DC2.4 cells (from UniProt Q3UHC2 1-2014) (natural protein)”, the negative fold change in peptide counts relative to TgWIP^WT came out at 3 fold in test [1], 1 fold in test [2], 3 fold in test [3] and 1 fold in test [4].

As to “Grb2, endogenous in murine DC2.4 cells (from UniProt Q60631 1-217) (natural protein)”, the negative fold change in peptide counts relative to TgWIP^WT in test [1] was 3 fold; in test [2], 4 fold; in test [3], 6 fold; in test [4], 2 fold.

As to “Shp1 (Ptpn6), endogenous in murine DC2.4 cells (from UniProt P29351 1-595) (natural protein)”, the negative fold change in peptide counts relative to TgWIP^WT is 3 fold in test [1], 32 fold in test [2], 3 fold in test [3] and 2 fold in test [4].

Regarding “Abi1, endogenous in murine DC2.4 cells (from UniProt Q8CBW3 1-481) (natural protein)”, the negative fold change in peptide counts relative to TgWIP^WT in test [1] is 6 fold; in test [2] it was 2 fold; in test [3], 4 fold; in test [4], 4 fold.

With “Cyfip1, endogenous in murine DC2.4 cells (from UniProt Q7TMB8 1-1253) (natural protein)”, the negative fold change in peptide counts relative to TgWIP^WT in test [1] is 5 fold; in test [2] it was 1 fold; in test [3] it was 2 fold; in test [4], 2 fold.

As for “Wasf2 (Wave2), endogenous in murine DC2.4 cells (from UniProt Q8BH43 1-497) (natural protein)”, the negative fold change in peptide counts relative to TgWIP^WT in test [1] worked out at 15 fold; in test [2], 2 fold; in test [3] it was 3 fold; in test [4], 3 fold.

In the case of “Cyfip2, endogenous in murine DC2.4 cells (from UniProt Q5SQX6 1-1253) (natural protein)”, the negative fold change in peptide counts relative to TgWIP^WT came out at 5 fold in test [1], 2 fold in test [2], 3 fold in test [3] and 2 fold in test [4].

For the molecule “Nck2, endogenous in murine DC2.4 cells (from UniProt O55033 1-380) (natural protein)”, the negative fold change in peptide counts relative to TgWIP^WT was determined as 3 fold in test [1], 1 fold in test [2], 1 fold in test [3] and 1 fold in test [4].

B1: Git1, endogenous in murine DC2.4 cells (natural protein)
chain: MSRKGPRAEVCADCSAPDPGWASISRGVLVCDECCSVHRSLGRHISIVKHLRHSAWPPTLLQMVHTLASNGANSIWEHSLLDPAQVQSGRRKANPQDKVHPIKSEFIRAKYQMLAFVHKLPCRDDDGVTAKDLSKQLHSSVRTGNLETCLRLLSLGAQANFFHPEKGTTPLHVAAKAGQTLQAELLVVYGADPGSPDVNGRTPIDYARQAGHHELAERLVECQYELTDRLAFYLCGRKPDHKNGHYIIPQMADRSRQKCMSQSLDLSELAKAAKKKLQALSNRLFEELAMDVYDEVDRRENDAVWLATQNHSTLVTERSAVPFLPVNPEYSATRNQGRQKLARFNAREFATLIIDILSEAKRRQQGKSLSSPTDNLELSARSQSELDDQHDYDSVASDEDTDQEPLPSAGATRNNRARSMDSSDLSDGAVTLQEYLELKKALATSEAKVQQLMKVNSSLSDELRRLQREIHKLQAENLQLRQPPGPVPPPSLPSERAEHTLMGPGGSTHRRDRQAFSMYEPGSALKPFGGTPGDELATRLQPFHSTELEDDAIYSVHVPAGLYRIRKGVSASSVPFTPSSPLLSCSQEGSRHASKLSRHGSGADSDYENTQSGDPLLGLEGKRFLELSKEDELHPELESLDGDLDPGLPSTEDVILKTEQVTKNIQELLRAAQEFKHDSFVPCSEKIHLAVTEMASLFPKRPALEPVRSSLRLLNASAYRLQSECRKTVPPEPGAPVDFQLLTQQVIQCAYDIAKAAKQLVTITTREKKQ
In the case of B1, the negative fold change in peptide counts relative to TgWIP^WT in test [1] is 11 fold; in test [2], 2 fold; in test [3] it was 4 fold; in test [4], 2 fold.

B2: Shp2 (Ptpn11), endogenous in murine DC2.4 cells (natural protein)
chain: MTSRRWFHPNITGVEAENLLLTRGVDGSFLARPSKSNPGDFTLSVRRNGAVTHIKIQNTGDYYDLYGGEKFATLAELVQYYMEHHGQLKEKNGDVIELKYPLNCADPTSERWFHGHLSGKEAEKLLTEKGKHGSFLVRESQSHPGDFVLSVRTGDDKGESNDGKSKVTHVMIRCQELKYDVGGGERFDSLTDLVEHYKKNPMVETLGTVLQLKQPLNTTRINAAEIESRVRELSKLAETTDKVKQGFWEEFETLQQQECKLLYSRKEGQRQENKNKNRYKNILPFDHTRVVLHDGDPNEPVSDYINANIIMPEFETKCNNSKPKKSYIATQGCLQNTVNDFWRMVFQENSRVIVMTTKEVERGKSKCVKYWPDEYALKEYGVMRVRNVKESAAHDYTLRELKLSKVGQGNTERTVWQYHFRTWPDHGVPSDPGGVLDFLEEVHHKQESIVDAGPVVVHCSAGIGRTGTFIVIDILIDIIREKGVDCDIDVPKTIQMVRSQRSGMVQTEAQYRFIYMAVQHYIETLQRRIEEEQKSKRKGHEYTNIKYSLVDQTSGDQSPLPPCTPTPPCAEMREDSARVYENVGLMQQQRSFR
For the molecule B2, the figures for the negative fold change in peptide counts relative to TgWIP^WT in test [2] and in test [3] were 39 fold and 3 fold, respectively.

B3: Git2, endogenous in murine DC2.4 cells (natural protein)
chain: MSKRLRSSDVCADCNGPDPSWASVNRGTFICDECCSVHRSLGRHISQVRHLKHTAWPPTLLQMVETLYNNGANSIWEHSLLDPASIMSGRRKANPQDKVHPNKAEFIRAKYQMLAFVHRLPCREDDSVTAKDLSKQLHSSVRTGNLETCLRLLSLGAQANFFHPEKGSTPLHVASKAGQILQAELLAVYGADPGTQDSSGKTPVDYARQGGHHELAERLIEIQYELTDRLAFYLCGRKPDHKSGQHFLIPQRADSLDLSELAKAAKKKLQSLSNHLFEELAMDVYDEVDRRETDAVWLATQNHSTLVTETTVVPFLPVNPEYSSTRNQGRQKLARFNAHEFATLVIDILSDAKRRQQGSPLSRSKDNVELILRTVSTQHSTESQDNDQPDYDSVASDEDTDVETRASKANRQKLQTLQSENSSLRRQATASACQVQTGSDHKDTASHSSLKRRPSARGSRPMSMYETGSGQKPYLPMGEASHPEESRTRLQPFPTHIGRSALVTSSSSLPSFPSTLSWSRDESARRASRLEKQNSTPESDYDNTACDPEPDDTGSTRKGRQRSMLWQGDGLLPDTAEPHSVPSPTLPSTEDVIRKTEQITKNIQELLRAAQENKHDSYIPCSERIHVAVTEMAALFPKKPKSDTVRTSLRLLTSSAYRLQSECRKALPGDSSLPTDVQLVTQQVIQCAYDIAKAAKQLVTITTKENSS
Take B3: the negative fold change in peptide counts relative to TgWIP^WT in test [2] amounted to 3 fold; in test [3] it was 2 fold; in test [4], 2 fold.

B4: Nostrin, endogenous in murine DC2.4 cells (natural protein)
chain: MRDPLTDCSYNKVYKSLKEFAQHGDNFCKQITSVLQQRANLEISYAKGLQKLAVRLSKALQSTKKNCLSTAWAWASESMKSAADLHQKLGKAIELEAIKPTHQVLSMQEKKRKSLDNEVEKTANLVINNWNQQIKAKKKLMMSTKKHEALFHLVESSKQSLTQKEKQKLLNKLKKSTEKLEKEDESYYQKNMAGYSTRLKWESTLENCYKSMLELEKERIQLLCNNLNQYSQHISLFGQTLTTCHTQIHCAISKVDVEKDIQALMEETAILSIENKSELLLADYFEEDPKNPMDKERRKSLLKPKLGRLQRDIEKASRDKEGLERKLKALASSSSFSDAKSQKDMETLMDENSLKLDLLQANSYKLSSVLADLEQRPKPCHPCSTCIFKWKEKEHSHTYVKISRPLLTKRLEKAESKAPAGGQNNPSSSPSGSTVSQASKHLCKALYTFQARQDDELNLEKGDIVTVHEKKEEGWWFGSLKGKRGHFPAAYVEELPPKAGNTATQA
Turning to B4, the negative fold change in peptide counts relative to TgWIP^WT is 5 fold in test [1], 1 fold in test [2], 6 fold in test [3] and 3 fold in test [4].
